Values joined by “and” are separate entries in the source; they are usually repeats but may differ in a detail not shown here. Identical values can stand only once. “Also recorded” adds a separate entry of the source. Like-named read-outs stand apart in the source and are kept apart here.
Tests used:
[1] = Isoelectric point (pI) of VHH / VHH-comprising polypeptide; type: physicochemical
[2] = system: human brain extract (Sg tau 4697); test: Western blotting of VHH on human brain extract; type: binding; details: VHH 1 μg/ml
Experimental: (§1) The specificity of the VHH of the invention (A12) as compared to a control VHH recognizing brain proteins (H8/E9, identical to VHH E9, Perruchini et al.) was determined by western blotting on 3 different antigens: a human brain extract (Sg tau 4697), a mouse brain extract (Tg 4510) and on a purified protein, GFAP, a specific marker of astrocytes. […] Furthermore, VHH immunohistochemistry was performed from Tg4510 mouse tissues (Grueninger et al, 2010) harbouring NFTs. […] For western blotting, first we performed a polyacrylamide gel electrophoresis at 200 V for 45 min. Then we transferred proteins from gel to nitrocellulose membrane during 1H at 30 V. We saturated nitrocellulose membrane with PBS milk 2% for 1H under stirring. The membrane was then incubated for 1H with selected VHH diluted at 1 μg/ml in PBS milk 2%, and washed 3 times 5 min with PBS Tween. A secondary mouse mAb C23-21 recognizing Strep-tag (DI 2012-32 High-affinity monoclonal anti-Strep-Tag antibody C23.21; Girard-blanc C., Krey T., Vasiliauskaite ieva, Nato F., Lafaye P., Dartevelle S., Rey F.) was added at 1:2500 and incubated 1H at 37° C. Then after additional washes, an anti-mouse mAb labelled with peroxidase was added for 1 H. Three washes of 5 min in PBS Tween were performed.

[3] = system: Tg 4510 mouse brain tissue; test: Immunohistochemistry on Tg 4510 mouse brain sections; type: binding; details: Tg 4510 paraffin-embedded mouse brain sections
Experimental: as §1

[4] = system: mouse brain extract (Tg 4510); test: Western blotting of VHH on mouse brain extract; type: binding; details: VHH 1 μg/ml
Experimental: as §1

[5] = target: GFAP (glial fibrillary astrocytic protein) (Homo sapiens, UniProt P14136); test: Western blotting of VHH on purified GFAP; type: binding; details: VHH 1 μg/ml
Sequence of GFAP (glial fibrillary astrocytic protein) (P14136 whole entry, species assumed): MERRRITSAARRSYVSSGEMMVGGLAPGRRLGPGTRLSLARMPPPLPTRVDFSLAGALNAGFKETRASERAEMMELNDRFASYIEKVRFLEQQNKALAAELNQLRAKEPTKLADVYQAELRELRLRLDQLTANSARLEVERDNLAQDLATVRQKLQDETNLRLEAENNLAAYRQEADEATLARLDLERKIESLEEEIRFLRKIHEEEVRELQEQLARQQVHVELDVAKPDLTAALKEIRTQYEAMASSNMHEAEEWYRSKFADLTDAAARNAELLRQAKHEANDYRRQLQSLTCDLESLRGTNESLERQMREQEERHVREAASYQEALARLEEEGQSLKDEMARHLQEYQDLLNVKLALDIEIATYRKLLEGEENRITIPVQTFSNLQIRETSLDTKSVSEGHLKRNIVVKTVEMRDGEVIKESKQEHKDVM
Experimental: as §1

RRVNRSEPTQHNLRGTGREVSVTPQSGKIISSWEVHGQQTRL [Neurovita 3]
isoelectric point (pI) [1]: basic

B1: VHH A12: alpaca VHH with the sequence of SEQ ID NO:3, selected from an immune library; does not recognize any human brain protein (protein)
VHH: EVQLQASGGGLAQPGGSLRLSVTVSGSIDVINNMAWYRQAPGNARELVATITSGFSTNYASSVKGRFTISRDNAKKAVYLQMNSLKPEDTADYYSKVHLIRLGAARAYDYWGQGTQVTVS
reactivity by western blotting against human brain extract [2]: does not recognize any human brain protein; also recorded: no reactivity; also recorded: not to recognize any brain protein
reactivity by western blotting against human brain extract ([2]; listed as VHH A2): no bands were detected
immunoreactivity / labelling by immunohistochemistry [3]: no immunoreactivity; also recorded: no labelling was observed; also recorded: not to recognize any brain protein
reactivity by western blotting against mouse brain extract [4]: no reactivity; also recorded: not to recognize any brain protein
reactivity by western blotting against mouse brain extract ([4]; listed as VHH A2): no bands were detected
reactivity by western blotting against GFAP [5]: no reactivity; also recorded: not to recognize any brain protein
reactivity by western blotting against GFAP ([5]; listed as VHH A2): no bands were detected
isoelectric point (pI) [1]: 9.78 and > 8.5 and 9.86
isoelectric point (pI) ([1]; listed as SEQ ID NO:3): > 9

From patent US10591466B2, “In vitro blood-brain barrier model” (priority 2014, dated 2020)
